In article PMC4058522, “Structural Basis for Phosphorylation-Dependent Recruitment of Tel2 to Hsp90 by Pih1” (Structure(London, England:1993), 2014):

Experiments:
[1] = target: yeast Hsp90, intact (full-length) dimer (yeast) (UniProt P02829); assay: ITC; 600 μM Tah1 injected into 40 μM yeast Hsp90; 10 mM Tris pH 7.5, 5 mM NaCl; 10°C or 30°C (not told which)
[2] = target: mouse Pih1 PIH domain 1-200 (His-mPih1 1-200) (mouse) (UniProt Q9CQJ2); assay: ITC; peptides at 350 μM injected into 30 μM Pih1 (mPIH domain) at 30°C; 20 mM Tris pH 7.5, 5 mM NaCl
[3] = target: pre-assembled full-length yeast Tah1-Pih1 complex (yeast) (UniProt P25638); assay: ITC; 301 μM yeast Hsp90 injected into 25 μM yeast Tah1-Pih1 complex; 10 mM Tris pH 7.5, 5 mM NaCl; 10°C or 30°C (not told which)
[4] = target: human Spagh/RPAP3 120-395 (tandem TPR region) (human) (UniProt Q9H6T3); assay: ITC; 500 μM yeast Hsp90 injected into 20 μM Spagh/RPAP3 120-395; 10 mM Tris pH 7.5, 5 mM NaCl; 10°C or 30°C (not told which)
Sequence of human Spagh/RPAP3 120-395 (tandem TPR region) (human) (Q9H6T3 120-395): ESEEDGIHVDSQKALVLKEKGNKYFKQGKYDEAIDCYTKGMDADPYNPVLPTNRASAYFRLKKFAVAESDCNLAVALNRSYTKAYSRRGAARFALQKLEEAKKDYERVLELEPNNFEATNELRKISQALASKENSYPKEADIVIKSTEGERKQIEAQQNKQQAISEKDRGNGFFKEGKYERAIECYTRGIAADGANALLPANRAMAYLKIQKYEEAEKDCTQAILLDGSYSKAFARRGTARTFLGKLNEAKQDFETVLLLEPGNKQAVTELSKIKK

Sequence of mouse Pih1 PIH domain 1-200 (His-mPih1 1-200) (mouse) (Q9CQJ2 1-200): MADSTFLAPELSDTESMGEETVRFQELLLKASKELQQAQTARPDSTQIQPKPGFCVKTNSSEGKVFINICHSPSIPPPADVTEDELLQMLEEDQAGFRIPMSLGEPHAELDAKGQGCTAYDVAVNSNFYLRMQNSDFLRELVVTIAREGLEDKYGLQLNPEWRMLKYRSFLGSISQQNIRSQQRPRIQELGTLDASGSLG

Substance | Kd [2] [µM] | further results
Tah1 (yeast, full-length) (from UniProt P25638 1-111) (natural protein) | – | Kd [1]: 5.9 µM; stoichiometry N (Tah1 per Hsp90 chain) [1]: 1
mouse Tel2 484-496 peptide, bis-phosphorylated pSer 486 and pSer 488 | 37.9 | –
mouse Tel2 484-496 peptide, pSer 486 | > 100 | –
mouse Tel2 484-496 peptide, pSer 488 | 15.3 | –
yeast Hsp90, intact (full-length) dimer (from UniProt P02829 1-709) (natural protein) | – | Kd [3]: 4 µM; Kd [4]: 6.8 µM; stoichiometry N ([4]; scale: Hsp90 chains per Spagh/RPAP3): 2

Second part, led by results:

Kd [2] [µM] | Substance | further results
0.17 | mouse Tel2 484-496 peptide, bis-phosphorylated pSer 488 and pSer 492 (QGSDpSELDpSDDEF) | –
0.39 | mouse Tel2 484-496 peptide, pSer 492 | –
